Results from paper PMC9947421.

What was measured:
Experiment in all cases: AP-MS
[1] = biological target: DNA-dependent protein kinase, catalytic subunit (PRKDC/DNAPKcs) (UniProt P78527)
VGLL4 = VGLL4 (UniProt Q14135); conditions: read off a plot
[2] = biological target: Rap1-interacting factor 1 (RIF1) (UniProt Q5UIP0)
[3] = biological target: poly(ADP-ribose) polymerase 1 (PARP1) (UniProt P09874)
[4] = biological target: transcriptional co-activator with PDZ-binding motif (TAZ) (UniProt Q9GZV5); conditions: read off a plot
[5] = biological target: X-ray repair cross-complementing protein 6 (XRCC6) (UniProt P12956); conditions: HEK293 cells
[6] = biological target: Yes-associated protein (YAP) (UniProt P46937); conditions: read off a plot

UniProt P78527, sequence (P78527 whole entry): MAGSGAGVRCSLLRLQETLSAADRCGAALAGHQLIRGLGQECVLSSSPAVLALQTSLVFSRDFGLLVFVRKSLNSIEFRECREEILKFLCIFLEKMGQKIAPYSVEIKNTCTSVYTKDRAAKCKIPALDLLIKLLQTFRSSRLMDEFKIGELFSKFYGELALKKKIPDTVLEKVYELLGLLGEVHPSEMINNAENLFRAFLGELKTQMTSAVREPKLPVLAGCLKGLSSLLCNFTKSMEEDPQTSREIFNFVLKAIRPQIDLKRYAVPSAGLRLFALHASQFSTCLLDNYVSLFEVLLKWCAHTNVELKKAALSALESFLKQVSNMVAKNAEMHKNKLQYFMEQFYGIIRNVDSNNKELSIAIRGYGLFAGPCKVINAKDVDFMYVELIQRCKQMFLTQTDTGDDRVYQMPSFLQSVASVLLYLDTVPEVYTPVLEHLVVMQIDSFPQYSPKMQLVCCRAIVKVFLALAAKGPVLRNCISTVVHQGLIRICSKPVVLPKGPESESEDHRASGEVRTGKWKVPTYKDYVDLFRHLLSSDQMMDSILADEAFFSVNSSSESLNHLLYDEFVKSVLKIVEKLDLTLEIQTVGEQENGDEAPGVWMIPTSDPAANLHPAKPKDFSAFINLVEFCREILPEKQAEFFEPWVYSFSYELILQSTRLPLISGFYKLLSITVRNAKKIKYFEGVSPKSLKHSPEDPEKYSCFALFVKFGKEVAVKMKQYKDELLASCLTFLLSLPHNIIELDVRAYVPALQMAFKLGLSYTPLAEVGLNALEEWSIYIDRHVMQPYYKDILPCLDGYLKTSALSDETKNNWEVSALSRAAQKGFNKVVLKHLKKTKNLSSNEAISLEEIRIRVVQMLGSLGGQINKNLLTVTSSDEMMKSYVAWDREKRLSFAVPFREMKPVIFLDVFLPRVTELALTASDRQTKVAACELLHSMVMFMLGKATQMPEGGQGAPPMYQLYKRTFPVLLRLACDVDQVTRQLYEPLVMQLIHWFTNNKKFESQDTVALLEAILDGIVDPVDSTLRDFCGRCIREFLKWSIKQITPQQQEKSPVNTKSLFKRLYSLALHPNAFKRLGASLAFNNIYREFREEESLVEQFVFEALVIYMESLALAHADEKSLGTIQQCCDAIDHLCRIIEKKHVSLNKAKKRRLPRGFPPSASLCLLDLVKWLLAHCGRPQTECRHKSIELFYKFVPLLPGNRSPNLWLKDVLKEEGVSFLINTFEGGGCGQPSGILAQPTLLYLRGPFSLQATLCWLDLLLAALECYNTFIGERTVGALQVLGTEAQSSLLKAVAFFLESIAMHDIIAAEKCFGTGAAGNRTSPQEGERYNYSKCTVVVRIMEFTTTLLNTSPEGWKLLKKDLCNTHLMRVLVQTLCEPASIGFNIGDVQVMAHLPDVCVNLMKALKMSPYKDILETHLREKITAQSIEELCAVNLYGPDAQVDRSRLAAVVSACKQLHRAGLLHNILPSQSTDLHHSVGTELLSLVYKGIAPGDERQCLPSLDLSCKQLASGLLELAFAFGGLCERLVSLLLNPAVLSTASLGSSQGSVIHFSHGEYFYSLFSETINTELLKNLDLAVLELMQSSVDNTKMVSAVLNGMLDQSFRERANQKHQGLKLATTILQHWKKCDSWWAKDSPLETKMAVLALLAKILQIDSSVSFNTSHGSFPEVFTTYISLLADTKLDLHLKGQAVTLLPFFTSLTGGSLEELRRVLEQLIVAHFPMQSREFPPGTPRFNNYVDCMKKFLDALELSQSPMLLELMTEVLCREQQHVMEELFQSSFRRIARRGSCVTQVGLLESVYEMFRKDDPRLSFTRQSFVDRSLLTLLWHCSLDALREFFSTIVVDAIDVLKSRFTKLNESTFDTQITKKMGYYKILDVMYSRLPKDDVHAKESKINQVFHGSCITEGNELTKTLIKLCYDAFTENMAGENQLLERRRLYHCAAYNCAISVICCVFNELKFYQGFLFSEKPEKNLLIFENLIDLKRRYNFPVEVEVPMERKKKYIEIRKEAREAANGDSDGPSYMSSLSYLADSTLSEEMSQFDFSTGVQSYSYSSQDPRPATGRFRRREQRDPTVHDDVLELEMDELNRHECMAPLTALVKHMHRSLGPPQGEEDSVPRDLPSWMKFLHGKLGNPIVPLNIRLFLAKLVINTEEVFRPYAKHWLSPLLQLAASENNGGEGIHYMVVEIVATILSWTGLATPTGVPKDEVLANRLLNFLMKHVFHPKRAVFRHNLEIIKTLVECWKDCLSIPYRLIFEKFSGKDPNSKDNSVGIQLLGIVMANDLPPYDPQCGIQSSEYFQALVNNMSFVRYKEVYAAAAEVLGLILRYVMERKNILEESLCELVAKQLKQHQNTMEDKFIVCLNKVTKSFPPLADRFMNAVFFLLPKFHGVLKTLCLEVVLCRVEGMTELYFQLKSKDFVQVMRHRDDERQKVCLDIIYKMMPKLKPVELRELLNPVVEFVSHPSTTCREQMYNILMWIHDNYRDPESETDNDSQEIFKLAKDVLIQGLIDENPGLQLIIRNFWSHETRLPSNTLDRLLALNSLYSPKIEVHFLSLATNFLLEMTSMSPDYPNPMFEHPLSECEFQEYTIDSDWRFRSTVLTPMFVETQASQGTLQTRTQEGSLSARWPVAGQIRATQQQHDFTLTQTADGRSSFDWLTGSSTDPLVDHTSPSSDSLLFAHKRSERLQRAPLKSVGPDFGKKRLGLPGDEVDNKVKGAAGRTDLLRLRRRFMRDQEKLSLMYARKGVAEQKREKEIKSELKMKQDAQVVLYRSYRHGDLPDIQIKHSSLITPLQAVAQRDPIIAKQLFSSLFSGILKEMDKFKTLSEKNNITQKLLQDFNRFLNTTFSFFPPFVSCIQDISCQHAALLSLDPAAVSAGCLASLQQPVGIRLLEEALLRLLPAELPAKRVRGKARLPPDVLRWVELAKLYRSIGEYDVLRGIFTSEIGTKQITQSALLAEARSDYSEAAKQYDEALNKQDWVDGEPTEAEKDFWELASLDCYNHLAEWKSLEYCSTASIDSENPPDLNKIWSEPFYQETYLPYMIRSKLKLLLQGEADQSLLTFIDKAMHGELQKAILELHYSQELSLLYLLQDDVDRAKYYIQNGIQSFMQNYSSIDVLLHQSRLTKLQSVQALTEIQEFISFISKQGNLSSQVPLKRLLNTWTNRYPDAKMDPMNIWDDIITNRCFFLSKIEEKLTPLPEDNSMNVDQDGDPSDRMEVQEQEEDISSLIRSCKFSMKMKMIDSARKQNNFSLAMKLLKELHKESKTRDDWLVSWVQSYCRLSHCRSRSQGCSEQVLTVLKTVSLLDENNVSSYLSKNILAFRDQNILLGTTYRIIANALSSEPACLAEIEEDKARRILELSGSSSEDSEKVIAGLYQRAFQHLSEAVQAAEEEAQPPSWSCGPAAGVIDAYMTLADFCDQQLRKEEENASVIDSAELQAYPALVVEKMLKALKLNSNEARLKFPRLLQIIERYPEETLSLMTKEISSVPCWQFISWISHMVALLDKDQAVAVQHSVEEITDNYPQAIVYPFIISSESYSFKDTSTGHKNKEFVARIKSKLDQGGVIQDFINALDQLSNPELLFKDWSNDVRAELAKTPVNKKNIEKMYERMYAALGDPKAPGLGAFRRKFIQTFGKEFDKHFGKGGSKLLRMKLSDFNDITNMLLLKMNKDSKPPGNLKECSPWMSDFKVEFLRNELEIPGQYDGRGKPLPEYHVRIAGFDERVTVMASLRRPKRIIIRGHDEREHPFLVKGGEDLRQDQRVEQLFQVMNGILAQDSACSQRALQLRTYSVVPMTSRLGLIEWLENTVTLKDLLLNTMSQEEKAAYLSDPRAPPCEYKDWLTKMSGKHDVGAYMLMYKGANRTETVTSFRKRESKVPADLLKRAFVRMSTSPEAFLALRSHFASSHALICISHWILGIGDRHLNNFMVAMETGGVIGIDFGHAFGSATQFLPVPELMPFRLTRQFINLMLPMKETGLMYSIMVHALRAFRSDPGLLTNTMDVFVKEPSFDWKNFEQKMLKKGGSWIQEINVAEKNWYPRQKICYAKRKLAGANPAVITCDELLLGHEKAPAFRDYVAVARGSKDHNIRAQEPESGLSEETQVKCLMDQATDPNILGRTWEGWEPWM
UniProt P09874, sequence (P09874 whole entry): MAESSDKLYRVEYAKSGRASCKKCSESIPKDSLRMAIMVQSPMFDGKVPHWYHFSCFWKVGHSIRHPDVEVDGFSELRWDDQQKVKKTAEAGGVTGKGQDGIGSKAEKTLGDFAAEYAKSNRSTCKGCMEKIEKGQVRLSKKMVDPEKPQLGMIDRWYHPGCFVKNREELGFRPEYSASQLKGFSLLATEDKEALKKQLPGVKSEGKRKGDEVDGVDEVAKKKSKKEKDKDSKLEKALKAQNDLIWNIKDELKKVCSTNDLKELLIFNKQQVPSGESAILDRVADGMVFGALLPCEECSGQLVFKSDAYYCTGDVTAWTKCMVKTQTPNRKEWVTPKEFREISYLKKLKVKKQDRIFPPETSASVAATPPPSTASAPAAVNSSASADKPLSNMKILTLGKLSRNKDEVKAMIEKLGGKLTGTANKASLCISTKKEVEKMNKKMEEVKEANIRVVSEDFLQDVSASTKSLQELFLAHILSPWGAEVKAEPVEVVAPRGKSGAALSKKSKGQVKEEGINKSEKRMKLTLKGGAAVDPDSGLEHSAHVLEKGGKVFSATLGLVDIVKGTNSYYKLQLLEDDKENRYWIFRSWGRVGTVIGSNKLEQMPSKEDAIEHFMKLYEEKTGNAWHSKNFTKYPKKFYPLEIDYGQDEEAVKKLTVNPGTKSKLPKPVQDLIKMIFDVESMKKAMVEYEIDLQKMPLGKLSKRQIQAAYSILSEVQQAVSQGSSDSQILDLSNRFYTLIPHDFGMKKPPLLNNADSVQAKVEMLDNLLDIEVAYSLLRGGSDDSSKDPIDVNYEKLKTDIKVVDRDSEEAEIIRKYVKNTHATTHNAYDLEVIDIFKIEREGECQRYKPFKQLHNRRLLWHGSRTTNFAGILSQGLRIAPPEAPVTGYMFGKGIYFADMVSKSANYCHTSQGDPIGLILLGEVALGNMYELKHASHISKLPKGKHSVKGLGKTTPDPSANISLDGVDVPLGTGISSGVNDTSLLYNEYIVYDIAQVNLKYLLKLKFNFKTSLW

WT TEAD3-Myc/Flag (from UniProt Q99594) … -> … (R>N; K>N; R>N; K>N; K>N; V>N; R>N; residue numbers not printed)
response ([1]; Detroit 562 cells, replicate TEAD3 mut_1 (parent: TEAD3_WT_1), parent: 232): 132 PSMs
response ([1]; Detroit 562 cells, replicate TEAD3 mut_2 (parent: TEAD3_WT_2), parent: 898): 496 PSMs
response ([1]; Detroit 562 cells, replicate TEAD3 mut_3 (parent: TEAD3_WT_3), parent: 658): 396 PSMs
response ([1]; HEK293 cells, replicate TEAD3 mut_1 (parent: TEAD3_WT_1), parent: 258): 167 PSMs
response ([1]; HEK293 cells, replicate TEAD3 mut_2 (parent: TEAD3_WT_2), parent: 223): 195 PSMs
response ([1]; HEK293 cells, replicate TEAD3 mut_3 (parent: TEAD3_WT_3), parent: 216): 230 PSMs
response (average sum PSMs) (VGLL4; Detroit 562 cells, parent: est. 90): 75
response (average sum PSMs) (VGLL4; HEK293 cells, parent: est. 150): 190
response ([2]; Detroit 562 cells, replicate TEAD3 mut_1 (parent: TEAD3_WT_1), parent: 302): 118 PSMs
response ([2]; Detroit 562 cells, replicate TEAD3 mut_2 (parent: TEAD3_WT_2), parent: 297): 45 PSMs
response ([2]; Detroit 562 cells, replicate TEAD3 mut_3 (parent: TEAD3_WT_3), parent: 331): 26 PSMs
response ([2]; HEK293 cells, replicate TEAD3 mut_1): 2 PSMs
response ([2]; HEK293 cells, replicate TEAD3 mut_2 (parent: TEAD3_WT_2), parent: 3): 1 PSMs
response ([3]; Detroit 562 cells, replicate TEAD3 mut_1 (parent: TEAD3_WT_1), parent: 90): 6 PSMs
response ([3]; Detroit 562 cells, replicate TEAD3 mut_2 (parent: TEAD3_WT_2), parent: 76): 5 PSMs
response ([3]; Detroit 562 cells, replicate TEAD3 mut_3 (parent: TEAD3_WT_3), parent: 87): 8 PSMs
response ([3]; HEK293 cells, replicate TEAD3 mut_1 (parent: TEAD3_WT_1), parent: 380): 1 PSMs
response ([3]; HEK293 cells, replicate TEAD3 mut_2 (parent: TEAD3_WT_2), parent: 624): 3 PSMs
response ([3]; HEK293 cells, replicate TEAD3 mut_3 (parent: TEAD3_WT_3), parent: 950): 4 PSMs
response (average sum PSMs) ([4]; Detroit 562 cells, parent: est. 170): 250
response (average sum PSMs) ([4]; HEK293 cells, parent: est. 23): 22
response ([5]; replicate TEAD3 mut_1 (parent: TEAD3_WT_1), parent: 56): 1 PSMs
response ([5]; replicate TEAD3 mut_3 (parent: TEAD3_WT_3), parent: 92): 1 PSMs
response (average sum PSMs) ([6]; Detroit 562 cells, parent: est. 620): 960
response (average sum PSMs) ([6]; HEK293 cells, parent: est. 200): 230
